The chains are these.
B1: Multiple coagulation factor deficiency protein 2 (Homo sapiens), Q8NI22 (parent)
chain: MTMRSLLRTPFLCGLLWAFCAPGARAEEPAASFSQPGSMGLDKNTVHDQEHIMEHLEGVINKPEAEMSPQELQLHYFKMHDYDGNNLLDGLELSTAITHVHKEEGSEQAPLMSEDELINIIDGVLRDDDKNNDGYIDYAEFAKSLQ
partner: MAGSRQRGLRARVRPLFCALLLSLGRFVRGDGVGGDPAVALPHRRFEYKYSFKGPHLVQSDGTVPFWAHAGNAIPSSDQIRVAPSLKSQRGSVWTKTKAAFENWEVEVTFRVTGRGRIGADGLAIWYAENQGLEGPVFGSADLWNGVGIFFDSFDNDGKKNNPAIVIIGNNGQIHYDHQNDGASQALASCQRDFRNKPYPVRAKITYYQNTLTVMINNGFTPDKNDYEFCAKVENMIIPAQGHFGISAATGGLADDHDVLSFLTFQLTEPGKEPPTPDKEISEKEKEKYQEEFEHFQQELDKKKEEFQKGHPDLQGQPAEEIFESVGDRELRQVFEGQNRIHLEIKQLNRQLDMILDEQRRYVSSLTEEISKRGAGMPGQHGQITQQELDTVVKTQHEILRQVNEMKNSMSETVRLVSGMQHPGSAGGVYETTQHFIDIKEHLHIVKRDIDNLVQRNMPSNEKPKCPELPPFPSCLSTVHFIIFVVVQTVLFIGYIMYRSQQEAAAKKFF

The variants in this test derive from B1. The note with it: with lman1_human LMAN1, P49257.
In the case of MTMRSLLRTPFLCGLLWAFCAPGARAEEPAASFSQPGSMGLDKNTVHDQEHIMEHLEGVINKPEAEMSPQELQLHYFKMHDYDGNNLLDGLELSTAITHVHKEEGSEQAPLMSEDELINIIDGVLRDDDKNNDGYTDYAEFAKSLQ [I136T], the “effect of a mutation on the interaction” value was “with no effect”.
